The record followed here is patent publication US20190145976A1 (GOVERNING COUNCIL OF THE UNIVERSITY OF TORONTO, published 2019).

Experiment [1] addresses T1, recombinant soluble human αKlotho (human, UniProt Q9UEF7 34-981).
T1 construct: extracellular domain; Bought (R&D Systems); also called Hu aKL; soluble human αKlotho ectodomain
T1 sequence (looked up): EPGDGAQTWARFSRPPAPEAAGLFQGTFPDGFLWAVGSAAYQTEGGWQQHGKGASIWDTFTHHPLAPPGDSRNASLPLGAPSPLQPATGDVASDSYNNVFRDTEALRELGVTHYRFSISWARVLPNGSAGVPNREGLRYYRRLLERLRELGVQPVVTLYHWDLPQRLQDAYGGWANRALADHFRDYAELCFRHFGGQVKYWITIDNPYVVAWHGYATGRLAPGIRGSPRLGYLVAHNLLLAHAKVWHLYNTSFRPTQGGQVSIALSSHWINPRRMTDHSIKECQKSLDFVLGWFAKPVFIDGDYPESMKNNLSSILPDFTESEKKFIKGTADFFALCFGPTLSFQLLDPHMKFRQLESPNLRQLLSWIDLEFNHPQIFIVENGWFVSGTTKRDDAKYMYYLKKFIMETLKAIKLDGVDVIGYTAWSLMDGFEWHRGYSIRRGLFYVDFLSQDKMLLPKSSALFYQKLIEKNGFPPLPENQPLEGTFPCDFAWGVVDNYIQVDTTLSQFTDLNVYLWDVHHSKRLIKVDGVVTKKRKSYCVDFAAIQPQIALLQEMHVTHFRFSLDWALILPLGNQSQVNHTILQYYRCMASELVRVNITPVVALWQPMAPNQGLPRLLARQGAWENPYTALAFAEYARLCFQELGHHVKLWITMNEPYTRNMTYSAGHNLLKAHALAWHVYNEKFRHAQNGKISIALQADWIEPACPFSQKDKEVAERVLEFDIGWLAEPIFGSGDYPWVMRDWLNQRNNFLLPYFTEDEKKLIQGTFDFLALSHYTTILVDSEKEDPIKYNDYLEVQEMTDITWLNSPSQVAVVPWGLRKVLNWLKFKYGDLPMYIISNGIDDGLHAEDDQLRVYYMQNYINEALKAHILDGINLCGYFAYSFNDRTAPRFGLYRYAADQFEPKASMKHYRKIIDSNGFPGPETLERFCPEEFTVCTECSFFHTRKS
Briefly: competitive Fab-phage ELISA with soluble human αKlotho as competitor (FIG. 1C). The protocol: (§1) (B) Specificity determination of anti-αKlotho sb106 by Fab-phage ELISA: sb106 Fab-phage were incubated with the following immobilized antigens: a complex of FGFR1c/αKlotho complex (aKL-R1), FGFR1c alone (R1), human αKlotho (Hu aKL) and mouse αKlotho (Mu aKL), or neutravidin (NA) and bovine serum albumin (BSA) as negative controls. After washing off unbound phage, bound phages were detected using an HRP-conjugated anti-phage antibody. Colorimetric HRP reagents allow for absorbance readings at 450 nm. […] The binding signals to immobilized human αKlotho reported are an average of two data sets.
(§2) Binding selections, phage ELISAs and Fab protein purification were performed as described. Briefly, phage from library F were cycled through rounds of panning with the binary complex of αKlotho extracellular domain and FGFR1c ligand-binding domain on 96-well Maxisorp Immunoplates (Fisher Scientific, Nepean, ON, Canada) as the capture target. After 5 rounds of selection, phage were produced from individual clones grown in a 96-well format and phage ELISAs were performed to detect specific binding clones. […] A competitive binding ELISA was performed by pre-incubating sb106-phage with serial dilutions of soluble human αKlotho (50-0.0005 nM×1 hour) prior to binding to an ELISA plate coated with human αKlotho. […]
For orientation: In an ELISA, binding on a coated surface is turned into a signal by an enzyme label.

For experiment [2], the target named is T2, ligand-binding domain of human FGFR1c (D142 to R365) (human, UniProt P11362 142-365).
T2 construct: range 142-365; also called FGFR1c alone
T2 sequence (looked up): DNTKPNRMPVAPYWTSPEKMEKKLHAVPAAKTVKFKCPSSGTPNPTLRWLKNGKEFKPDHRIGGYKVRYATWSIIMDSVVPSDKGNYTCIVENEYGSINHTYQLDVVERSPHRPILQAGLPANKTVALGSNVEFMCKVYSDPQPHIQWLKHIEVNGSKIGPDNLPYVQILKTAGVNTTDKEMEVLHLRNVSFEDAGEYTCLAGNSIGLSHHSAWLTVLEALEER
Briefly: Fab-phage ELISA on immobilised antigen, HRP-conjugated anti-phage antibody, absorbance at 450 nm. The method, then:
as §1
(§3) Binding selections, phage ELISAs and Fab protein purification were performed as described. Briefly, phage from library F were cycled through rounds of panning with the binary complex of αKlotho extracellular domain and FGFR1c ligand-binding domain on 96-well Maxisorp Immunoplates (Fisher Scientific, Nepean, ON, Canada) as the capture target. After 5 rounds of selection, phage were produced from individual clones grown in a 96-well format and phage ELISAs were performed to detect specific binding clones. […] A competitive binding ELISA was performed by pre-incubating sb106-phage with serial dilutions of soluble human αKlotho (50-0.0005 nM×1 hour) prior to binding to an ELISA plate coated with human αKlotho. […] Fab and IgG proteins were affinity-purified on Protein A affinity columns (GE Healthcare, Mississauga, ON, Canada).

The target of another experiment is T3, neutravidin (UniProt P02701 25-152).
T3 construct: Negative control in the phage ELISA; also called NA; NAV
The experiment is described as above. The protocol:
as §1, §3

The target of a further experiment is T4, bovine serum albumin (bovine, UniProt P02769 25-607).
T4 construct: Negative control in the phage ELISA; also called BSA
The experiment is described as above. The protocol: as §1, §3

Experiment [3] deals with T1, recombinant soluble human αKlotho. Briefly: competitive Fab-phage ELISA: sb106-phage pre-incubated with soluble human αKlotho (50-0.0005 nM), then bound to plate-coated human αKlotho; competitive Fab-phage ELISA; soluble human αKlotho as competitor. The method, then:
as §1, §2

Experiment [4] concerns the target T5, native rat αKlotho in tissue and NRK cells (rat, UniProt Q9Z2Y9 35-1014).
T5 construct: also called αKlotho of rat parathyroid tissue; native αKlotho of NRK cells
T5 sequence (looked up): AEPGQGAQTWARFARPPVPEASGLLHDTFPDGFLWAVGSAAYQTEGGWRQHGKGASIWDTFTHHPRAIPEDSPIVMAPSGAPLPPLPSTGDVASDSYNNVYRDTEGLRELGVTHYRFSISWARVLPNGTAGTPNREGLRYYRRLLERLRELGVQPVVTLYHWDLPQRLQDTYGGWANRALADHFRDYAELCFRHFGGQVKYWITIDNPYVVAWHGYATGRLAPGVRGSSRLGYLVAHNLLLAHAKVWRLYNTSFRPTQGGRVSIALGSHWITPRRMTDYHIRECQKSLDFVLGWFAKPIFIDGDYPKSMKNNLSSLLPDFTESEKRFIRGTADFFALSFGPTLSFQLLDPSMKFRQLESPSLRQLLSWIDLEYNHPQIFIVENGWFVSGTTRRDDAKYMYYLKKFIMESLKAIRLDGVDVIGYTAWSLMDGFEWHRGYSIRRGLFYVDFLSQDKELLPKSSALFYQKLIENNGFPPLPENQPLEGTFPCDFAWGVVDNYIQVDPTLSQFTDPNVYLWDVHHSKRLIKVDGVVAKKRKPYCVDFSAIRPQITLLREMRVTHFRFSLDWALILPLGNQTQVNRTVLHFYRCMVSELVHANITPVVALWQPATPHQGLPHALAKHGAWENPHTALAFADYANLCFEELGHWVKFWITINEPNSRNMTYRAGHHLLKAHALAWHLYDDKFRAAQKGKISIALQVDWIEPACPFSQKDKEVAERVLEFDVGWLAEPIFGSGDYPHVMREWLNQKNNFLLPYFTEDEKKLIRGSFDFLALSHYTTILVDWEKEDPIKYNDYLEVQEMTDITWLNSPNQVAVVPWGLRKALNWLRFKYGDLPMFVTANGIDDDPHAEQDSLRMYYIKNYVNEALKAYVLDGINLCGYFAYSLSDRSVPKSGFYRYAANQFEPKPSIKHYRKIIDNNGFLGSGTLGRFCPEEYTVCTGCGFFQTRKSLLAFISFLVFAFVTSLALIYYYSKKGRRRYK
Briefly: immunohistochemistry on freshly frozen unfixed rat parathyroid sections; freshly frozen unfixed rat parathyroid tissue (native fold). The method, then:
For labeling, sections were blocked (PBS, 1.5% BSA, 10% goat serum; 40 min) and incubated with the primary antibody sb106 ([…] in blocking solution; 4° C. overnight). After washing (PBS), sections were incubated with the Alexa 546 goat anti-human IgG (1:800 dilution, Invitrogen) for 1 hour at room temperature. After additional washes with PBS, the sections were fixed with 4% paraformaldehyde in PBS, washed with PBS, and mounted and visualized with a Zeiss LSM510 microscope.
Sb106 was highly reactive against αKlotho under native conditions. Immunoblot signals under denaturing conditions against mouse, rat, and human kidney tissue were weak, but in samples from transgenic mice overexpressing αKlotho[79], sb106-Fab detected a band corresponding to the full-length extracellular domain of αKlotho (FIG. 2A). In cultured cells, sb106-Fab was not able to detect αKlotho in immunoblots under denaturing conditions with lysates from NRK cells expressing native αKlotho but it was able to detect overexpressed antigen in cell lysates from HEK293 cells transfected with αKlotho (FIG. 2B). […] Cells were then incubated with sb106-Fab ([…] in 1% BSA in PBS) for 1 hr. Cells were washed 5 times with cold PBS (2 min each) and then incubated with anti-FLAG-Alexa488 (the C-terminus of the Fab light chain contains a Flag epitope tag) (1:400 in 1% BSA in PBS) for 1 hr, while being protected from light. […]

T4 sequence (P02769 25-607 limits assumed): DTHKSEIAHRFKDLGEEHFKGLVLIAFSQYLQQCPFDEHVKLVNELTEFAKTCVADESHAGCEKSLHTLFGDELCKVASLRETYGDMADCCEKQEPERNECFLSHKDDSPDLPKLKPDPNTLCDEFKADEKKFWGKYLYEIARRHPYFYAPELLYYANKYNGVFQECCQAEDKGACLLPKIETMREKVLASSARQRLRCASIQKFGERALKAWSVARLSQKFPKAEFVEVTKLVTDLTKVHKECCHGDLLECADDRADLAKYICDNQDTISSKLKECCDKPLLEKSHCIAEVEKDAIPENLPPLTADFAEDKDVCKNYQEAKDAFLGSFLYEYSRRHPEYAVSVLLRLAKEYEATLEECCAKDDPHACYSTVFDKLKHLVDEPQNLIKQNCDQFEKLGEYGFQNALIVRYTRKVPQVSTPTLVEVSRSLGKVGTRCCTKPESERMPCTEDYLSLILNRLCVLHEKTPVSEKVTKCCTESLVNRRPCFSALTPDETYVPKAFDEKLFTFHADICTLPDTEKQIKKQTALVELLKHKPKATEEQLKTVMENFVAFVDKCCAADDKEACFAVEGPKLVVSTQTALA
T3 sequence (P02701 25-152): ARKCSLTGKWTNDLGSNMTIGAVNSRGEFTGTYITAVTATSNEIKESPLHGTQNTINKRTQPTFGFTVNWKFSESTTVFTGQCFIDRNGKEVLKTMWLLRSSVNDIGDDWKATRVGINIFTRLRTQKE

B1: sb106 Fab-phage (Fab, V domains shown)
VH: EVQLVESGGGLVQPGGSLRLSCAASGFNISYYSIHWVRQAPGKGLEWVAYISPSYGYTSYADSVKGRFTISADTSKNTAYLQMNSLRAEDTAVYYCARYYVYASHGWAGYGMDYWGQGTLVTVSS
VL: DIQMTQSPSSLSASVGDRVTITCRASQSVSSAVAWYQQKPGKAPKLLIYSASSLYSGVPSRFSGSRSGTDFTLTISSLQPEDFATYYCQQAGYSPITFGQGTKVEIKR
notes: also called sb106-phage; Sb106-phage
By Kd is commonly meant the concentration at which binding is half-saturated. One may read the IC50 as the point on the concentration scale where inhibition reaches its midpoint. With B1, in experiment [1], the Kd lay within 1 to 2 nM. Besides, the binding result (in experiment [2]; with neutravidin; with bovine serum albumin) was “no binding” in each case. The IC50 in experiment [3] is 1.7 nM.

B2: sb106-IgG (antibody, V domains shown)
VH: B1 VH
VL: B1 VL
For the molecule B2, the binding result in experiment [4] was “binds”.
